Test [1] deals with canine E-cadherin ectodomain K14E mutant (canine). Put plainly: single-molecule atomic force microscopy; biotinylated canine Ecad on streptavidin on PEG tethers on both AFM tip and coverslip; without 19A11 (−ab); pulling velocity 1 µm/s; pH 7.5, 10 mM Tris-HCl, 100 mM NaCl, 10 mM KCl, 2.5 mM CaCl2.
Test [2] has the same target. Put plainly: single-molecule atomic force microscopy; as −ab, but tip and coverslip incubated with 19A11 Fab and 150 nM free 19A11 Fab in the measurement buffer (+ab); pulling velocity 1 µm/s; pH 7.5, 10 mM Tris-HCl, 100 mM NaCl, 10 mM KCl, 2.5 mM CaCl2.

Regarding “canine E-cadherin ectodomain K14E mutant (domain or fragment)”, the unbinding force (peak of a single Gaussian), without 19A11 in test [1] was 41.2 pN. The unbinding force (peak of a single Gaussian), with 150 nM 19A11 in test [2] turned out to be 40.3 pN.

These data come from paper PMC9371698.
